Test results taken from US20160108128A1 (CANCER RESEARCH TECHNOLOGY, published 2016).
Positions count from the first letter of the chain named.

B1: J1-183D variant 10 (antibody, human IgG1, V domains shown)
VH: QVQLVQSGAELKKPGASVKVSCKVSGYAFTDYAIHWIRQAPGQGLEWMGIINTYYGDSKYAQKFQGRVTMTVDTSTSTAYMELSSLRSEDTAVYYCARGYDGFAYWGQGTLVTVSS
VL: DIQMTQSPSSLSASVGDRVTITCRTSENIYSYLTWYQQKPGKAPKLLIYNAKILDSGVPSRFSGSGSGTDFTLTISSLQPEDFATYYCQHHYDIPWTFGGGTKLEIKR
notes: human IgG1; also called J1-183DV10; V10
B2: J1-183D variant 2 (antibody, human IgG1, V domains shown)
VH: B1 VH
VL: B1 VL with I48V, D55A, S56A
notes: human IgG1; also called J1-183DV2; V2
B3: J1-183D variant 1 (antibody, human IgG1, V domains shown)
VH: B1 VH with A61N, Q65K, G66D, T74K
VL: B1 VL with I48V, D55A, S56A
notes: human IgG1; also called J1-183DV1; V1
B4: J1-183D variant 3 (antibody, human IgG1, V domains shown)
VH: B1 VH with I37V
VL: B1 VL with I48V, D55A, S56A
notes: human IgG1; also called J1-183DV3; V3
B5: J1-183D chimeric (antibody, human IgG1, V domains shown)
VH: QVQLQQPGTELVRPGVSVKISCKVSGYAFTDYAIHWIMQSHAKSLEWIGIINTYYGDSKYNQKFKDKATMTVDKSSNTAYMELARLTSEDSAIYYCARGYDGFAYWGQGTLVTVSS
VL: DIQLTQSPASLSASVGETVTFTCRTSENIYSYLTWYQQKQGKSPQLLVYNAKILAAGVPSRFSGYGSGTQFSLKINSLQPEDFGTYYCQHHYDIPWTFGGGTKLEIK
notes: chimeric antibody with unaltered CDRs; vectors encode human IgG1
B6: J1-65D chimeric (antibody, human IgG1, V domains shown)
VH: QVQLQQPGAELVRPGASVKLSCKALGYTFTDYEMHWVKETPVHGLEWIGAIQPGGGGTAYNQKFKGKATLTADKSSSTAYMELSSLTSEDSAVYYCTRRGYDDYPFAYWGQGTLVTVSS
VL: DIQLTQSPASLSASVGETVTITCRASGNIHNYLAWYQQKQGKSPQLLVYNAKTLADDIPSRFSGSGSGTQYSLKINSLQPEDFGSYYCQHFWSAPWTFGGGTKLEIK
notes: as for B5
B7: J1-65D variant 14 (antibody, human IgG1, V domains shown)
VH: QVQLVQSGAELKKPGSSVKVSCKASGYTFTDYEMHWVRQAPGQGLEWMGAIQPGGGGTAYAQKFKGRVTLTADKSTSTAYMELSSLRSEDTAVYYCTRRGYDDYPFAYWGQGTLVTVSS
VL: DIQMTQSPSSLSASVGDRVTITCRASQGIHNYLAWYQQKPGKAPKLLIYNAKTLADAVPSRFSGSGSGTDYTLTISSLQPEDFATYYCQQFWSAPWTFGQGTKLEIK
notes: human IgG1; also called J1-65DV14; V14
B8: J1-65D variant 16 (antibody, human IgG1, V domains shown)
VH: B7 VH with L11V, K65Q, L70I
VL: B7 VL
notes: human IgG1; also called J1-65DV16; V16
B9: J1-65D variant 15 (antibody, human IgG1, V domains shown)
VH: B7 VH with L11V, K65Q
VL: B7 VL
notes: human IgG1; also called J1-65DV15; V15
B10: J1-65D variant 13 (antibody, human IgG1, V domains shown)
VH: B7 VH with A61N
VL: B7 VL
notes: human IgG1; also called J1-65DV13; V13

These binders were tested against T1, murine Jagged 1, full length, on B16F10 cells (mouse, UniProt Q9QXX0 34-1218) (assay: FACS, B16F10-mJAG1 cells, anti-human-APC).
T1 construct: whole, on cells; GFP co-expressed; also called mJ1; B16F10-mJAG1
Experimental: FIG. 19. […] Samples were analysed by FACS and the mean fluorescence intensities (MFI) were plotted.
(§1) HEK293 cells transfected with human J1, J2 or FLAG-EGFP-tagged DSL-EGF3 constructs, B16F10 cells transfected with human DLL4 or mouse J1, and human cancer cell lines, were stained with either purified anti-J1 antibodies at 10 μg/ml diluted in FACS wash buffer (2% FBS in PBS+0.1% sodium azide) or neat hybridoma supernatants followed by a allophycocyanin (APC)-conjugated secondary antibody at 1:200 dilution: for murine primary antibodies, used goat anti-mouse-APC (eBioscience); for humanised and chimeric antibodies used goat anti-human IgG (H+L) secondary antibody (Jackson ImmunoResearch Laboratories). After washing, samples were fixed with 1% paraformaldehyde (in PBS) and acquired with a FACSCalibur. FACS data were analysed with FlowJo software (TreeStar Inc.).

T1 sequence (Q9QXX0 34-1218, one chain of several): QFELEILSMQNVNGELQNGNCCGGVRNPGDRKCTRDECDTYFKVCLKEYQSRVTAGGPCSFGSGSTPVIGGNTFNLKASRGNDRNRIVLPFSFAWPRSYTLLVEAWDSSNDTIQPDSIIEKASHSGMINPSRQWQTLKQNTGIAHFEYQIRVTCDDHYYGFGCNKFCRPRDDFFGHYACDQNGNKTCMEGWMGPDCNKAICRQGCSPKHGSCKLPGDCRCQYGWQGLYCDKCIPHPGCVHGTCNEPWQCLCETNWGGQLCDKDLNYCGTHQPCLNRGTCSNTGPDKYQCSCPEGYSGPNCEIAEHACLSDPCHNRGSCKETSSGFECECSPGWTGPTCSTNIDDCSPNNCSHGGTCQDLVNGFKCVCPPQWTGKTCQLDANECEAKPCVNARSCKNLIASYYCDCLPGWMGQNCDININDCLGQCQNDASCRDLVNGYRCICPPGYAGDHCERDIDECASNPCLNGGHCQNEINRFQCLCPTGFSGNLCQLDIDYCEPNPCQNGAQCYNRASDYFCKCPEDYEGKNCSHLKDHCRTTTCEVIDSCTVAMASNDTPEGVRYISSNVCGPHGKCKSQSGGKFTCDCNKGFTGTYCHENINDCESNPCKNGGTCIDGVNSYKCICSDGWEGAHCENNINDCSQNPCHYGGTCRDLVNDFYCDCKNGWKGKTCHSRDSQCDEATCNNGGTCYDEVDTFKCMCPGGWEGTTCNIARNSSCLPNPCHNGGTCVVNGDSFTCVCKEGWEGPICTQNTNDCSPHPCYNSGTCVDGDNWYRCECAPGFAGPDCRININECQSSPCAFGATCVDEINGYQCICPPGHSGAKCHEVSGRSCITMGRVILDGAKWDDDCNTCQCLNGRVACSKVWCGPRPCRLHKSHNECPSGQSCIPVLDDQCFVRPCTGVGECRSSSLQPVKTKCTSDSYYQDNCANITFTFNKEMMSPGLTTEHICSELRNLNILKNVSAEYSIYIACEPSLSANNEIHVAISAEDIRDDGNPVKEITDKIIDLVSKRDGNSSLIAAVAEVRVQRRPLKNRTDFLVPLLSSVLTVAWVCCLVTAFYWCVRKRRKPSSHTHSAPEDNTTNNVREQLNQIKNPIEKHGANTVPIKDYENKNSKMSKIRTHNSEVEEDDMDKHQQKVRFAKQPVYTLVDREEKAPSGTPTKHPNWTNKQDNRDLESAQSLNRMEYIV

| Binder | binding result |
| --- | --- |
| B1 | no binding (tested: 10 ug/ml) |
| B2 | no binding (tested: 10 ug/ml) |
| B3 | no binding (tested: 10 ug/ml) |
| B4 | no binding (tested: 10 ug/ml) |
| B5 | no binding (tested: 10 ug/ml) |
| B6 | no binding (tested: 10 ug/ml) |
| B7 | no binding (tested: 10 ug/ml) |
| B8 | no binding (tested: 10 ug/ml) |
| B9 | no binding (tested: 10 ug/ml) |
| B10 | no binding (tested: 10 ug/ml) |

The binders below were run against T2, human Jagged 2, full length, on HEK293 cells (human, UniProt Q9Y219 24-1238) (assay: FACS, 293-JAG2 cells, anti-human-APC).
T2 construct: whole, on cells; also called J2; hJ2
Experimental: FIG. 18. […] Samples were analysed by FACS and the mean fluorescence intensities (MFI) were plotted. […] With the exception of J1-65D variants 13-16, all the remaining antibodies effectively bound the human J1 protein.
as §1

T2 sequence (Q9Y219 24-1238): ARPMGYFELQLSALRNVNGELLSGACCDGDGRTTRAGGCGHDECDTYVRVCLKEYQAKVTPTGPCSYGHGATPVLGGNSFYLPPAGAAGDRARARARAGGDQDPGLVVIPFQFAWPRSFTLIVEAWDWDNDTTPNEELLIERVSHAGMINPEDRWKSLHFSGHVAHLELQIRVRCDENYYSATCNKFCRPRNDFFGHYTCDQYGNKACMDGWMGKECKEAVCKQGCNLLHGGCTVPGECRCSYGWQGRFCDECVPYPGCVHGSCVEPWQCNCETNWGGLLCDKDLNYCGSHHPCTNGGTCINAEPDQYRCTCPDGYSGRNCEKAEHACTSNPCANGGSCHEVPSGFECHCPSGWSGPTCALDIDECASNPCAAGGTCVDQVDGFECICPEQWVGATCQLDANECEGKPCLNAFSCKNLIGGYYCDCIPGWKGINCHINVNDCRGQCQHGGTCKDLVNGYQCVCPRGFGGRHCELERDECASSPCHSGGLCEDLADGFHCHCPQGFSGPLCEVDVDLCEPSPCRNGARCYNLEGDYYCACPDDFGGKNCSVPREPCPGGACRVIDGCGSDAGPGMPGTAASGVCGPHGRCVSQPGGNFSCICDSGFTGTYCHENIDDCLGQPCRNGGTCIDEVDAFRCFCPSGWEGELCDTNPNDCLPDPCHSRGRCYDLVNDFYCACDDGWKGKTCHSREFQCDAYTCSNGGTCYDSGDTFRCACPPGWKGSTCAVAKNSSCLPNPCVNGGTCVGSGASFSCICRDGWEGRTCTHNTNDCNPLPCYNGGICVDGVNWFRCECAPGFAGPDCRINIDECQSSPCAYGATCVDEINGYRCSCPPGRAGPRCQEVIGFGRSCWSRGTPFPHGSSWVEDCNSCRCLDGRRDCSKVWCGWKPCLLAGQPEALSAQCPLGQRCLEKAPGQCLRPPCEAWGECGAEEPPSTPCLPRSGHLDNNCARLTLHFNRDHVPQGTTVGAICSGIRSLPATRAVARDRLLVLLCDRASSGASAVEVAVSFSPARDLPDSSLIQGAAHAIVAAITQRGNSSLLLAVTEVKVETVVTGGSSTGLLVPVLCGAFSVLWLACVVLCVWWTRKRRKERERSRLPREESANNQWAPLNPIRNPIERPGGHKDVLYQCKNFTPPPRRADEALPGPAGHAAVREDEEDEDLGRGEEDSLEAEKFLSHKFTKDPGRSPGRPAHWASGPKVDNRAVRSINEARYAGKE

| Binder | binding result |
| --- | --- |
| B1 | no binding (tested: 10 ug/ml) |
| B2 | no binding (tested: 10 ug/ml) |
| B3 | no binding (tested: 10 ug/ml) |
| B4 | no binding (tested: 10 ug/ml) |
| B5 | no binding (tested: 10 ug/ml) |
| B6 | no binding (tested: 10 ug/ml) |
| B7 | no binding (tested: 10 ug/ml) |
| B8 | no binding (tested: 10 ug/ml) |
| B9 | no binding (tested: 10 ug/ml) |
| B10 | no binding (tested: 10 ug/ml) |

The binders below were run against T3, J1 DSL-EGF3 soluble recombinant protein (human Jagged 1 amino acids 185-335) (human, UniProt P78504 185-335) (assay: affinity to the immunogen J1-DE3; method not stated).
T3 construct: biotinylated in the CD46 ELISA; also called J1-DE3; DSL+EGF1-3
T3 sequence (P78504 185-335, form in doubt): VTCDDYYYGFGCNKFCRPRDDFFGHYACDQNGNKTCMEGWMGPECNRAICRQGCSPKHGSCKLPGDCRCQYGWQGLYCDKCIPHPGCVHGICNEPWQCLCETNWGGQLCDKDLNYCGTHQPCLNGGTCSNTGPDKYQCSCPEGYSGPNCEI

| Binder | Kd [nM] |
| --- | --- |
| B1 | 1.77 |
| B2 | 2.19 |
| B3 | 0.77 |
| B4 | 2.55 |
| B7 | 58.3 |
| B8 | 52.1 |
| B9 | 39.8 |
| B10 | 14.2 |
